Columns and labels:
[1] = target: EED (Homo sapiens) (UniProt O75530); details: cited from earlier work
[2] = target: purified full-length EED (AlphaScreen) (UniProt O75530); assay: AlphaScreen or HTRF
purified full-length EED (AlphaScreen), sequence (O75530 whole entry): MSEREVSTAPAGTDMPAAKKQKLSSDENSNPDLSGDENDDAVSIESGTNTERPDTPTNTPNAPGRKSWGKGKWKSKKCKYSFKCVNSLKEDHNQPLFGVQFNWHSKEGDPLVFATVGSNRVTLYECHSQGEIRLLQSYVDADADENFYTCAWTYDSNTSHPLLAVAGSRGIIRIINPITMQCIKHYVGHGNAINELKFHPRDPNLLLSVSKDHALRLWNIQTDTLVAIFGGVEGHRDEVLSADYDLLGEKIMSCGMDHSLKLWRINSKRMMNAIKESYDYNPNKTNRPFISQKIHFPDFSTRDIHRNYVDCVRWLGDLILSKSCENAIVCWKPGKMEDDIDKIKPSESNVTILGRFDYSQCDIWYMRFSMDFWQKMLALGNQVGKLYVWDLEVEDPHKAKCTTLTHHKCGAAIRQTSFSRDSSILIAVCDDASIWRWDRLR

EED (Homo sapiens), sequence (O75530 2-441): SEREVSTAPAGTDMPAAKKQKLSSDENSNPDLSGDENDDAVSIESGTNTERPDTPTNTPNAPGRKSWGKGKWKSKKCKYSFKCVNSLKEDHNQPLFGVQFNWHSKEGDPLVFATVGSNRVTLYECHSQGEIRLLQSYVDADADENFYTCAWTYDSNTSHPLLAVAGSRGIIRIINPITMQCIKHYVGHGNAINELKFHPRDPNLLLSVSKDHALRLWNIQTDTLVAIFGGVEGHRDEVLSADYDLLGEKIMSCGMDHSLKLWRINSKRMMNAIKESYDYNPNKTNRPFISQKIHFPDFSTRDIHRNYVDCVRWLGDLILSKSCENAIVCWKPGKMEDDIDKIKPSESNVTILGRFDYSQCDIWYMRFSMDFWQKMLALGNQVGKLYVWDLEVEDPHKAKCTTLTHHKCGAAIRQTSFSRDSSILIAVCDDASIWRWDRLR
EZH2 39-68, sequence (Q15910 39-68): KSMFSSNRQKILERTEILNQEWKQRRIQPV

Substance | Kd [1] | EC50 [2]
EZH2 39-68 (from UniProt Q15910) | 380 nM | –
unlabeled full-length RING1B (from UniProt Q99496 1-336) (natural protein) | – | 605 nM

From PMC4073494
